Data from paper PMC6945068.

Molecular target: ^35S-labelled in vitro-translated Flag-B56γ (X. laevis PP2A regulatory B subunit B56γ)
Experiment: pull-down (amylose beads) with autoradiography quantification
Settings: 1 h, read off a plot

MBP-fused Apc1-loop^500 wild type (residues 515-584 of Xenopus tropicalis Apc1), sequence (Q08D52 entry or part of it, stated change not applied): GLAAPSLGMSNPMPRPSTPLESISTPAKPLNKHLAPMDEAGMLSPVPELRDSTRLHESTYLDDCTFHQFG

MBP-fused Apc1-loop^500 wild type (residues 515-584 of Xenopus tropicalis Apc1) (from UniProt Q08D52) T532A; T539A; S558A
response (anaphase extract (Ana) supplemented with CycB∆167, 23°C, lane 16, parent: est. 3.3): 1.1 A.U.
response (interphase extract (Inter), 23°C, lane 12, parent: est. 0.95): 1.1 A.U.
